Results on five molecules are retold here after US20230235040A1 (ALMIRALL S A, published 2023).

The term Kd denotes the free concentration of one partner at which half of the binding sites on the other are occupied at equilibrium, for simple one-to-one binding. Usually koff stands for the first-order rate constant of dissociation. In general, kon refers to the rate constant with which the complex forms.

The target in assay [1] is T1, hu-IL-36β (human IL-36β, N-terminally truncated active form R5-E157) (human).
T1 chain: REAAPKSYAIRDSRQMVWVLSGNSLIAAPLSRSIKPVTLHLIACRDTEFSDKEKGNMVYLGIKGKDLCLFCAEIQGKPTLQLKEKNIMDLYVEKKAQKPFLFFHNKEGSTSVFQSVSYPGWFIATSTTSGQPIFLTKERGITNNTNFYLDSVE
Nature of the assay: cell-based or functional assay.

In assay [2] the target is T1, hu-IL-36β (human IL-36β, N-terminally …). Nature of the assay: ELISA, yeast Fab supernatant, anti-Fab-HRP. (In general: ELISA stands for enzyme-linked immunosorbent assay.)
The target of assay [3] is T2, cy-IL-36β (cynomolgus monkey IL-36β, W5-E157) (cynomolgus monkey).
T2 construct: Purification tag cleaved off
T2 chain: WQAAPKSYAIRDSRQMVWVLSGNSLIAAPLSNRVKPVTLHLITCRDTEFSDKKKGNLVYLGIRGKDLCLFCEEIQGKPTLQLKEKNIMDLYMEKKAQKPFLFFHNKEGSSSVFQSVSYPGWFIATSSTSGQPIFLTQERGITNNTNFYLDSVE
Put plainly: ELISA on coated cy- and hu-IL-36β, yeast Fab supernatant; ratio of OD450. As to the method:
Cell supernatants from yeast clones of interest were tested for binding to human IL-36 by ELISA as described above. To compare the binding of these supernatants to human and cynomolgus monkey IL-36, IL-36 proteins were coated at 2.5 μg/mL on 96-well Nunc MaxiSorp plates (Thermo Fisher) and the plates blocked with 5% goat serum in PBS. Yeast supernatants were diluted 1:1 with PBST containing 1% w/v BSA and added to the ELISA plates for 1-1.5 hours with agitation. Bound Fab was detected by incubating the plates with F(ab′)2-HRP (Jackson ImmunoResearch). The ELISAs were developed for 3-10 minutes by addition of 50 μL/well of tetramethylbenzidine (TMB) microwell peroxidase substrate (Scytek Laboratories, Inc., Logan, Utah, USA) and enzymatic color development was stopped by acidification with 50 µL/well of 2 N H₂SO₄ (Sigma-Aldrich Corporation, St. Louis, Mo., USA). The optical density of the samples at a wavelength of 450 nm (OD450) was analyzed with a SpectraMax i3X plate reader (Molecular Devices LLC, San Jose, Calif., USA). To estimate the relative affinity of each clone for cynomolgus monkey IL-36 and human IL-36 in this assay, a ratio of OD450 (OD450_cyIL-36/OD450_huIL-36) was calculated for each clone and IL-36 cytokine.

Assay [4] deals with T1, hu-IL-36β (human IL-36β, N-terminally …). Put plainly: cell-based or functional assay.
For assay [5] the target is unchanged. Nature of the assay: SPR (Biacore 8K), IgG captured on protein A chip, 37°C. As to the method:
(§1) FC1 was kept as a reference. Next, 3-fold serial dilutions of hu-IL-36β in HBS-P buffer from low (0.046 nM of hu-IL-36β) to high (100 nM of hu-IL-36β) were injected (flow rate: 30 μL/min) at either 37° C. The sensorgram was recorded and subject to reference and buffer subtraction before data analysis with the BIACORE® 8K Evaluation Software (GE Healthcare, Chicago, Ill., USA; version 1.1.1.7442). Association rates (kₒₙ) and dissociation rates (koff) were calculated using a simple one-to-one Langmuir binding model. The equilibrium dissociation constant (KD) was calculated as the ratio of koff/kₒₙ.
In general terms: In SPR one partner is held on a chip, and binding of the other changes the refractive index at the surface.

Assay [6] has the same target. Put plainly: SPR (Biacore 8K), IgG captured on protein A chip, hu-IL-36β injected, 37°C. As to the method:
as §1

The target of assay [7] is T2, cy-IL-36β (cynomolgus monkey IL-36β, …). Nature of the assay: cell-based or functional assay.
Assay [8] concerns the target T1, hu-IL-36β (human IL-36β, N-terminally …). Nature of the assay: cell-based or functional assay.
The target of assay [9] is T3, hu-IL-36α (human IL-36α, N-terminally truncated active form K6-F158) (human, UniProt Q9UHA7 6-158).
T3 sequence: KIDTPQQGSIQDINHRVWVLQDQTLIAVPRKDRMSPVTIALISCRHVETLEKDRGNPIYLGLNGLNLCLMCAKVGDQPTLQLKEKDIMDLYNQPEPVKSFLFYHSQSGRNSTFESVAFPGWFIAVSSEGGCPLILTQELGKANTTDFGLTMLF
Nature of the assay: cell-based or functional assay.

Assay [10] has as its target T4, hu-IL-36γ (human IL-36γ, N-terminally truncated active form S18-D169) (human, UniProt Q9NZH8 18-169).
T4 sequence: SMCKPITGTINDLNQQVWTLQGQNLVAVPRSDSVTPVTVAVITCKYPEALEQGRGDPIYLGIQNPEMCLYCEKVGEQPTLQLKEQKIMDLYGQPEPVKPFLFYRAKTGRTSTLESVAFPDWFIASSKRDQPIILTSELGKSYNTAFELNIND
Put plainly: cell-based or functional assay.

Assay [11] has as its target T5, cy-IL-36α (cynomolgus monkey IL-36α, K6-F158) (cynomolgus monkey, UniProt Q9UHA7 14-158 (human entry)).
T5 chain: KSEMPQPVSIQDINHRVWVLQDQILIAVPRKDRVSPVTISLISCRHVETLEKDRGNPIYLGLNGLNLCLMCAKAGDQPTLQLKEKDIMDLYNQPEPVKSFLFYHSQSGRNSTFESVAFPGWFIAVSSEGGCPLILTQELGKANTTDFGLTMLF
Put plainly: cell-based or functional assay.

Assay [12] addresses T6, cy-IL-36γ (cynomolgus monkey IL-36γ, S18-K168) (cynomolgus monkey, UniProt Q9NZH8 18-167 (human entry)).
T6 chain: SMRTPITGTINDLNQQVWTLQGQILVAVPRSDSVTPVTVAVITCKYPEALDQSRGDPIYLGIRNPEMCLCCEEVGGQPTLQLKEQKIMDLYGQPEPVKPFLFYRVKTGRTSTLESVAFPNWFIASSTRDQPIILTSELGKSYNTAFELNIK
Nature of the assay: cell-based or functional assay.

Assay [13] addresses T3, hu-IL-36α (human IL-36α, N-terminally …). Put plainly: cell-based or functional assay. This is another data set of the same source.
Assay [14] concerns the target T4, hu-IL-36γ (human IL-36γ, N-terminally …). Put plainly: cell-based or functional assay. The source holds these as a separate data set.

B1: mAb7.0 Fab (yeast clone culture supernatant) (Fab, V domains shown)
VH: QVQLVESGGGVVQPGRSLRLSCAASGFTFSSYGMHWVRQAPGKGLEWVAVISYGGSERYYADSVKGRFTISRDNSKNTLYLQMNSLRAEDTAVYYCAREPWYSSRGWTGYGFDVWGQGTLVTVSS
VL: EIVLTQSPGTLSLSPGERATLSCRASQSVSSNYLAWYQQKPGQAPKLLIYSASSLQSGVPSRFSGSGSGTDFTLTISSLQPEDFATYYCQQTYSYPPTFGQGTKVEIK
notes: Human Fab secreted by the yeast clone, not purified
Consider B1, for which the “% Inhibition, HEK-Blue IL-36R SEAP reporter assay” value in [1] worked out at 84%. Also, the “ELISA OD450” value in assay [2] was found to be 2.58 OD450. Besides, in assay [3], the “ELISA OD450cyIL-36/OD450hu-IL-36” value worked out at 3.9 ratio.

B2: mAb6.0 Fab (yeast clone culture supernatant) (Fab, V domains shown)
VH: QLQLQESGPGLVKPSETLSLTCTVSGGSITSSNYYWGWIRQPPGKGLEWIGSIDYTGSTYYNPSLKSRVTISVDTSKNQFSLKLSSVTAADTAVYYCARGKYYETYLGFDVWGQGTLVTVSS
VL: QSVLTQPPSVSGAPGQRVTISCTGSSSNIGAGYDVHWYQQLPGTAPKLLIYGNTNRPSGVPDRFSGSKSGTSASLAITGLQAEDEADYYCQSYDISLSGWVFGGGTKLTVL
notes: as for B1
For the molecule B2, the “% Inhibition, HEK-Blue IL-36R SEAP reporter assay” value in [1] came out at 86%. For the same molecule, the “ELISA OD450” value in assay [2] was 2.34 OD450. Also, the “ELISA OD450cyIL-36/OD450hu-IL-36” value in assay [3] is 4 ratio.

B3: mAb6.0_2.0 IgG (mAb6.0 HC/mAb2.0 LC chimera) (antibody, V domains shown)
VH: QLQLQESGPGLVKPSETLSLTCTVSGGSITSSNYYWGWIRQPPGKGLEWIGSIDYTGSTYYNPSLKSRVTISVDTSKNQFSLKLSSVTAADTAVYYCARGKYYETYLGFDVWGQGTLVTVSS
VL: QSVLTQPPSVSGAPGQRVTISCTGSSSNIGAHYDVHWYQQLPGTAPKLLIYGNDNRPSGVPDRFSGSKSGTSASLAITGLQAEDEADYYCQSYDYSLSGYVFGGGTKLTVLG
As to B3, in assay [4], the “IC50, hu-IL-36β-stimulated IL-8 secretion by HaCat cells” value came to 12.7 nM and the “fold decrease in potency relative to mAb6.0 IgG, HaCat IL-8 assay” value was 16 fold. Moreover, the “fold lower affinity than mAb6.0” value in [5] is 16 fold. In [6], the affinity, expressed as Kd, was 6.7 nM; the koff was 0.00214 s⁻¹; the kon is 320000 M⁻¹ s⁻¹.

B4: mAb6.0 recombinant human IgG1 (antibody, V domains shown)
VH: QLQLQESGPGLVKPSETLSLTCTVSGGSITSSNYYWGWIRQPPGKGLEWIGSIDYTGSTYYNPSLKSRVTISVDTSKNQFSLKLSSVTAADTAVYYCARGKYYETYLGFDVWGQGTLVTVSS
VL: QESVLTQPPSVSGAPGQRVTISCTGSSSNIGAGYDVHWYQQLPGTAPKLLIYGNTNRPSGVPDRFSGSKSGTSASLAITGLQAEDEADYYCQSYDISLSGWVFGGGTKLTVLG
notes: Human IgG1; also called mAb6.0 IgG
On to B4, for which, in assay [4], the “IC50, IL-36-stimulated IL-8 secretion by HaCat cells” value came out at 0.082 nM; the “IC50, IL-36-stimulated IL-8 secretion by primary human keratinocytes (HEKn)” value amounted to 1.75 nM; the “IC50, hu-IL-36β-stimulated IL-8 secretion by HaCat cells” value stood at 0.8 nM; the “blocking potency relative to IL-36Ra, HaCat IL-8 assay” value worked out at 1000 fold. Also, in [7], the “IC50, HEK-Blue assay with human IL1RL2” value was 1.96 nM. Also, the “IC50, HEK-Blue IL-36R SEAP reporter assay” value in assay [8] was 0.64 nM. Moreover, in assay [6], binding was characterised by a dissociation constant (Kd) of 0.42 nM, the koff was found to be 0.000115 s⁻¹ and the kon worked out at 362000 M⁻¹ s⁻¹.

B5: mAb2.0 recombinant human IgG1 (antibody, V domains shown)
VH: QLQLQESGPGLVKPSETLSLTCTVSGGSISTSSYYWGWIRQPPGKGLEWIGSIYYTGNTYYNPSLKSRVTISVDTSKNQFSLKLSSVTAADTAVYYCARVRYGVGVPRYFDPWGQGTLVTVSS
VL: QSVLTQPPSVSGAPGQRVTISCTGSSSNIGAHYDVHWYQQLPGTAPKLLIYGNDNRPSGVPDRFSGSKSGTSASLAITGLQAEDEADYYCQSYDYSLSGYVFGGGTKLTVLG
With B5, the “IC50, IL-36-stimulated IL-8 secretion by HaCat cells” value in [9] worked out at 0.28 nM; in [10] it was 1.23 nM. In addition, the “IC50, IL-36-stimulated IL-8 secretion by primary human keratinocytes (HEKn)” value turned out to be 0.33 nM in [9] and 2.27 nM in [10]. Moreover, the “blocking potency relative to the natural antagonist IL-36Ra, HaCat IL-8 assay” value in assay [9] stood at 100 fold; in assay [10], 12 fold. Also, the “IC50, HEK-Blue assay with human IL1RL2” value in [11] amounted to 0.56 nM; in [12] it was 1.71 nM. Also, the “IC50, HEK-Blue IL-36R SEAP reporter assay” value in assay [13] came to 5.7 nM; in assay [14], 7.5 nM.
